One molecule from paper PMC6703867 (Science Advances, 2019) can be followed below.

In this test the target is T1, MBP-AtWRKY20 fusion protein (Arabidopsis thaliana, UniProt Q93WV0 1-557).
T1 sequence (looked up): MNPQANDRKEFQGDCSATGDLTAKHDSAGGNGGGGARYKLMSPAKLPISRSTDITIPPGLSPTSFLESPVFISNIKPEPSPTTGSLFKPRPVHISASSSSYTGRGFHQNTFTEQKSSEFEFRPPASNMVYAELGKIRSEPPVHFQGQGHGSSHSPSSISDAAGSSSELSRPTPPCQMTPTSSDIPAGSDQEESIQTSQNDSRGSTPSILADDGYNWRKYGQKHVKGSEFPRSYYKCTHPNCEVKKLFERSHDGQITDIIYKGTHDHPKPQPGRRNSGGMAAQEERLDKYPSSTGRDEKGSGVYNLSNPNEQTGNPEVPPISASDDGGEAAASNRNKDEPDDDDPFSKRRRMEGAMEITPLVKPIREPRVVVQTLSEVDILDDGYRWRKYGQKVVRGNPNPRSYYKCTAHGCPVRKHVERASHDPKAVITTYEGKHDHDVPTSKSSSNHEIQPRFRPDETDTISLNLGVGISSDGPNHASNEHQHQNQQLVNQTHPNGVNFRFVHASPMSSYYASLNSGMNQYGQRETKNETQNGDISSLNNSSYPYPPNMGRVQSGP
The test can be described thus: pull-down.

B1: GST-AtORA59 (natural protein)
chain: not shown
B1: the binding result is listed as “binds”.
